Biological target: OC183B2 (antigens associated with ovarian carcinoma) (human)
Experiment: indirect ELISA of phage-displayed scFv

binding activity relative to negative control: 2.5 times
B1: anti-ovarian carcinoma scFv antibody (scFv)
scFv: EVQLQESGPEVKKPGETVRISCKASGYTFTTAGMQWVQKMPGKGLKWLGWINTNSEVPKYAEDFRGRFAFSLETSASTAYLQISNLKNEDTATFFCARSFTWGTMDYWGQGTTVTVSSGGGGSGGGGSGGGGSDVVMTQTPLSLPVSLGDQASISCRSSQTLVHSIGNTYLHWYLQKPGQSPKLLIYKVSNRFSGVPDRFSGSGSGTDFTLKISRVEAEDLGVYFCSQSTHVPYTFGGGTKLELK

From patent US20080138339A1
